Source: patent US12448436B2, “Antibody specifically binding to GRP94 or antigen-binding fragment thereof, and uses thereof” (KOOKMIN UNIVERSITY INDUSTRY ACADEMY COOPERATION FOUNDATION, priority 2020, dated 2025)
Substitutions are numbered along the chain they refer to. Entries after “also recorded” stand apart in the source; their conditions may differ.

B1: B5: anti-GRP94 human IgG antibody; CDRs SEQ ID NOS: 1 to 6, VH SEQ ID NO: 7, VL SEQ ID NO: 8 (antibody, V domains shown)
VH: EVQLLESGGGLVQPGGSLRLSCAASGFTFSNYYMSWVRQAPGKGLEWVSGIYPNSGSTYYADSVKGRFTISRDNSKNTLYLQMNSLRAEDTAVYYCARDPLHPARFPFDYWGQGTLVTVSS
VL: QSVLTQPPSASGTPGQRVTISCTGSSSNIGNNAVSWYQQLPGTAPKLLIYADSHRPSGVPDRFSGSKSGTSASLAISGLRSEDEADYYCGAWDASLNAYVFGGGTKLTVL
modifications: Amino acid sequence of heavy chain variable of GRP94 B5; Amino acid sequence of light chain variable of GRP94 B5
B2: E5: anti-GRP94 human IgG antibody; CDRs SEQ ID NOS: 9 to 14, VH SEQ ID NO: 15, VL SEQ ID NO: 16 (antibody, V domains shown)
VH: EVQLLESGGGLVQPGGSLRLSCAASGFTFSNYAMSWVRQAPGKGLEWVSGISSSSGSTYYADSVKGRFTTSRDNSKNTLYLQMNSLRAEDTAVYYCARDRHPFSPNWFDYWGQGTLVTVSS
VL: B1 VL with T23S, S26P, N31S, A33T, S35T, G90A, A91S, A94D, A98G
modifications: Amino acid sequence of heavy chain variable of GRP94 E5; Amino acid sequence of light chain variable of GRP94 E5
B3: 3G7: anti-GRP94 human IgG antibody; CDRs SEQ ID NOS: 25 to 30, VH SEQ ID NO: 31, VL SEQ ID NO: 32 (antibody, V domains shown)
VH: EVQLLESGGGLVQPGGSLRLSCAASGFTFSNYSMSWVRQAPGKGLEWVSGIYYGSGNKYYADSVKGRFTISRDNSKNTLYLQMNSLRAEDTAVYYCAKNLASFDYWGQGTLVTVSS
VL: B1 VL with T23S, N31S, A33S, S35N, A51S, D52N, A91T, A94S, N97S, A98G
modifications: Amino acid sequence of heavy chain variable of GRP94 3G7; Amino acid sequence of light chain variable of GRP94 3G7

How the values were obtained:
[1] = system: HCT116 cells; experiment: In vitro CRC proliferation assay, HCT116; format: cell-based, human; details: 20 μg/mL, end point, relative to the control PBS
Description: (§1) The four anti-GRP94 human IgG antibodies B5, E5, 2H5, and 3G7 of the present disclosure were examined in vitro for effect on CRC cell proliferation. For use in the efficacy assay, the four cetuximab-resistant colorectal cancer cell lines HCT116, HT29, LoVo, and HCT-8 were each grown in a culture medium (HCT116, HCT8, HT29, and LoVo: RPMI1640+10% FBS+1% Penicillin-Streptomycin) at 37° C. in T-75 flask in a 5% CO2 incubator until reaching about 80-90% confluency. The culture medium was removed by suction and the cells were washed with 10 mL of phosphate buffered saline (hereinafter PBS). After removal of PBS by suction, the cells were treated 2 mL of TrypLE Express Enzyme at 37° C. for 3 minutes in a 5% CO2 incubator. Thereafter, the cells were added with 8 mL of the culture medium, transferred to 15-mL tube, and centrifuged at 500×g for 5 minutes. After removal of the supernatant, the cells were suspended in the culture medium. From a small portion of the cell suspension, the cells were counted using the Countess II Automated Cell Counter. […] The 96-well plates were mounted on the Incucyte Zoom system. With the microscope magnification set at 4×, images were collected at intervals of 2 hours for 72 hours. From the collected images, cell growth was monitored using the IncuCyte FLR live content imaging system (Essen Bioscience, Ann Arbor, MI, USA).

[2] = target: T1, recombinant human GRP94 (Homo sapiens, UniProt P14625); experiment: ELISA binding to recombinant human GRP94; details: high specificity stated for human and rat antigens
T1 construct: made in house; host or cells: Expi293 cells (pcDNA 3.4)
Description: Each well of 96-well plates was coated with 0.1 μg of recombinant human GRP94 (rhGRP94), blocked with 3% (w/v) bovine serum albumin (BSA) in phosphate buffered saline (PBS) for 2 hours at 37° C., and incubated with 100 μL of GRP94 targeting IgG (20 μg/mL) for 2 hours at 37° C. The plates were washed thrice with 0.05% PBS-T, and 100 μL of a 500:1 dilution of the secondary antibody anti-human Fc Ab (Sigma-Aldrich) was added to each well. Incubation at 37° C. for 1 hour was followed by three rounds of washing with 0.05% PBS-T. Then, 100 μL of 3,3′,5,5′-tetramethylbenzidine (1-step ultra TMB) substrate solution was added to each well. Finally, optical densities were measured at 450 nm using a microplate reader (Synergy H1, BioTek).
The four GRP94 IgGs (B5, E5, 2H5, and 3G7) of the present disclosure were measured for equilibrium dissociation constant (KD). In this regard, each well of 96-well plates was coated with 100 ng of rhGRP94 and blocked with 3% (w/v) bovine serum albumin (BSA) in PBS at 37° C. for 2 hours. Next, the plates were incubated with a concentration gradient of 0 nM to 500 nM of each clone for the GRP94 IgGs at 37° C. for 2 hours. The use of a secondary antibody and the measurement of optical density were conducted as described for the ELISA.
After 96-well plates were coated with BSA, recombinant human GRP94, recombinant rat GRP94, and recombinant monkey GRP94, their binding affinity for each antibody (B5, E5, 2H5, or 3G7) was measured by ELISA.

[3] = system: HCT116 subcutaneous xenograft; experiment: Tumor growth inhibition by sole administration, colorectal xenograft model; format: in vivo, Balb/c nude mice; details: 10 mg/kg intravenous twice per week for six weeks; for tumor growth inhibition compared to PBS: n=9
From the text: For use in assaying in-vivo efficacy of the four antibodies of the present disclosure, a subcutaneous xenograft mouse model was established by injecting the metastatic colorectal cancer cell line HCT116 (5×10^6 cells) into 6-week-old Balb/c nude mice.

[4] = Protein aggregation index (UV absorbance 280/340 nm); format: physicochemical; details: antibody in PBS; 100×(Abs340/[Abs280−Abs340]); control HCl-aggregated GRP94 antigen
Description: To evaluate the production the antibodies (B5, E5, 2H5, and 3G7) of the present disclosure and the antibody aggregation after purification, each of the antibodies was added to PBS and absorbance was read at 280 nm and 340 nm using NanoDrop 2000 (Thermo Fisher Scientific). The protein aggregation index was calculated from UV absorbance according to the following equation. As a control, the GRP94 antigen that was induced by treatment with HCl to aggregate was used. Protein Aggregation Index=100×(Abs340/[Abs280−Abs340]) Equation 1

[5] = system: HT29 cells; experiment: In vitro CRC proliferation assay, HT29; format: cell-based, human; details: 20 μg/mL; for cell index at the end point: 72 hours, MOCK 2.94±0.04; for cell growth inhibitory ability: end point, relative to the control PBS
Description: as §1, with “For use in the efficacy assay, the four cetuximab-resistant colorectal cancer cell lines HCT116, HT29, LoVo, and HCT-8 were each grown in a culture medium (HCT116, HCT8, HT29, and LoVo: RPMI1640+10% FBS+1% Penicillin-Streptomycin) at 37° C. in T-75 flask in a 5% CO2 incubator until reaching about 80-90% confluency.” left out

T1 sequence (P14625 22-803): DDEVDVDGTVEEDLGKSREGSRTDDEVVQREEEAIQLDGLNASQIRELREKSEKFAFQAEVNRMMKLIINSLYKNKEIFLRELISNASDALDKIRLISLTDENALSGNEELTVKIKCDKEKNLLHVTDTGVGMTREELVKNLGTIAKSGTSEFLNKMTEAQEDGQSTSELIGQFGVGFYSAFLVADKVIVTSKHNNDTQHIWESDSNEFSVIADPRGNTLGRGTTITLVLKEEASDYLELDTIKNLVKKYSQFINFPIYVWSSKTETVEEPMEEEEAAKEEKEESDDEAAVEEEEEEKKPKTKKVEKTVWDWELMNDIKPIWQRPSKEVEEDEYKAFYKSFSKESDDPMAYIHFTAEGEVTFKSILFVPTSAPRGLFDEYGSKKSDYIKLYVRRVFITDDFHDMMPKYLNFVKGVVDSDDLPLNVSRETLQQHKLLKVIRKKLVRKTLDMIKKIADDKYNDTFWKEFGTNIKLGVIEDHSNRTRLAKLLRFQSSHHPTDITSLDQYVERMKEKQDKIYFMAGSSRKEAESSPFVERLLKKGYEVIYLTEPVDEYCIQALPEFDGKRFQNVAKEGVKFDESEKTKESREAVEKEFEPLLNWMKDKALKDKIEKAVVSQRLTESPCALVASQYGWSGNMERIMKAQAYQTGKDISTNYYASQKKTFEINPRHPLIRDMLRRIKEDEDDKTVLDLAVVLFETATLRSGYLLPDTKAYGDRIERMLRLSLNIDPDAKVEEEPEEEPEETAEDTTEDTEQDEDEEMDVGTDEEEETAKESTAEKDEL

binding to recombinant human GRP94 [2] | Molecule | cell growth inhibitory ability [1] | tumor growth inhibition compared to PBS [3] [%] | protein aggregation index [4] | cell index at the end point [5] | cell growth inhibitory ability [5] | inhibitory activity against tumor growth compared to the controls ([3]; controls PBS and hIgG)
bind | B1 | statistically significant; also recorded: excellent inhibitory activity | 30 | low | 2.32±0.02 | statistically significant; also recorded: excellent inhibitory activity | –
bind | B2 | statistically significant; also recorded: excellent inhibitory activity | – | low | 2.32±0.08 | statistically significant; also recorded: excellent inhibitory activity | did not exhibit inhibitory activity
bind | B3 | statistically significant; also recorded: excellent inhibitory activity | 33 | low | 2.17±0.06 | statistically significant; also recorded: excellent inhibitory activity | –
